From patent US9493781B2, “Synthetic brassica-derived chloroplast transit peptides” (DOW AGROSCIENCES LLC, priority 2012, dated 2016)

How the values were obtained:
[1] = tested on: Arabidopsis; test: dgt-28, dgt-32, dgt-33, dgt-3, dgt-7 transformed Arabidopsis (T1, T2, T3) response to postemergence glyphosate, % visual injury; type: in vivo, Arabidopsis thaliana; conditions: 14 days after application
Summary of the method: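 Transgenic T1, T2 and T3 Arabidopsis (low-copy events for T2/T3, hemizygous and homozygous in T2) sprayed postemergence with glyphosate at 105, 420, 1,680 or 3,360 g ae/ha. Visual injury scored 2 weeks after treatment as mean, SD and range. Non-transformed Columbia served as sensitive control.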

[2] = tested on: Arabidopsis; test: Heritability progeny test of T1 families (T2 plants) with glufosinate, Arabidopsis; type: in vivo, Arabidopsis thaliana; conditions: progeny test of 100 T2 plants, glufosinate 200 g ae/ha
Summary of the method: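 Self-pollinated T1 Arabidopsis events gave T2 seed; 100 random T2 siblings were sprayed with glufosinate at 200 g ae/ha and scored resistant/sensitive, segregation tested by Chi square against 3:1.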

[3] = Table 8, T1 Arabidopsis, 105 g ae/ha glyphosate
[4] = Table 8, T1 Arabidopsis, 420 g ae/ha glyphosate
[5] = Table 8, T1 Arabidopsis, 1680 g ae/ha glyphosate
[6] = Table 8, T1 Arabidopsis, 3360 g ae/ha glyphosate
[7] = Table 10, T1 Arabidopsis, 1,680 g ae/ha glyphosate
[8] = Table 12, T2 Arabidopsis, 1 copy, 420 g ae/ha glyphosate
[9] = Table 12, T2 Arabidopsis, 1 copy, 840 g ae/ha glyphosate
[10] = Table 12, T2 Arabidopsis, 1 copy, 1680 g ae/ha glyphosate
[11] = Table 12, T2 Arabidopsis, 1 copy, 3360 g ae/ha glyphosate

B1: pDAB105534: TraP13 v2 -- dgt-28 v5: binary construct TraP13 v2:dgt-28 v5 (SEQ ID NO:37) (nucleic acid)
DNA: ATGGCACAAGTTAGCAGAATCTGTAATGGTGTGCAGAACCCATCTCTTATCTCCAATCTCTCAAAGTCCAGCCAACGTAAGTCTCCCCTCAGCGTGTCTCTGAAAACTCAGCAGCCCAGAGCTTCTTCATGGGGTTTGAAGAAATCTGGAACGATGCTTAACGGCTCAGTCATTCGTCCGGTTAAGGTGACAGCCTCCGTCTCCGCTGCTAGAGGGATGCCAGCCTTGTCTTTACCTGGATCAAAGAGTATCACAGCTAGGGCACTCTTTCTTGCTGCTGCTGCTGATGGGGTTACTACTTTGGTGAGGCCATTGAGAAGTGACGACACAGAAGGATTCGCTGAGGGGTTAGTTCGTTTAGGCTATCGTGTAGGGAGGACACCCGATACTTGGCAAGTCGATGGCAGACCACAAGGACCAGCAGTGGCTGAGGCTGACGTCTACTGTAGAGACGGAGCAACCACCGCTAGATTCTTGCCAACCTTAGCAGCTGCTGGTCACGGAACATACAGATTTGATGCTTCACCACAGATGAGGAGACGTCCTCTTTTGCCCTTAAGCAGAGCCTTGAGGGATTTGGGTGTCGATCTTAGACACGAAGAAGCTGAAGGTCATCACCCTCTGACTGTCCGTGCTGCTGGGGTTGAAGGAGGAGAGGTTACTTTGGATGCTGGTCAGTCAAGTCAGTATCTCACTGCCTTGTTGCTCCTTGGTCCCCTTACAAGACAAGGACTGAGGATAAGGGTTACTGATTTGGTGTCAGCACCATACGTGGAGATTACGCTTGCAATGATGAGGGCTTTCGGAGTTGAAGTGGCAAGGGAGGGAGATGTGTTCGTTGTTCCACCTGGTGGATATCGTGCAACTACGTATGCTATAGAACCCGACGCAAGTACTGCTTCTTACTTCTTCGCAGCTGCTGCTTTGACTCCTGGAGCTGAAGTGACTGTACCTGGGTTAGGCACGGGAGCACTTCAAGGAGATTTGGGATTTGTAGATGTCTTAAGGAGAATGGGAGCCGAGGTGTCCGTAGGAGCTGATGCAACCACTGTTAGAGGAACTGGTGAATTGCGTGGCCTTACAGCCAACATGAGAGACATAAGTGATACGATGCCGACCCTCGCTGCAATAGCACCCTTTGCTAGTGCTCCAGTTAGAATCGAGGATGTTGCCAACACTCGTGTCAAAGAATGTGACAGACTTGAGGCTTGTGCAGAGAACCTTAGGAGGTTGGGAGTAAGGGTTGCAACGGGTCCGGACTGGATTGAGATACACCCTGGTCCAGCTACTGGTGCTCAAGTCACAAGCTATGGTGATCACAGAATTGTGATGTCATTTGCAGTGACTGGACTTCGTGTGCCTGGGATCAGCTTCGACGACCCTGGCTGTGTTCGTAAGACTTTTCCTGGGTTTCACGAGGCTTTCGCAGAATTGAGGCGTGGCATTGGGAGCTGA
modifications: In-frame fusion of dgt-28 v5 and TraP13 v2
[1]; [3]
  % Injury Ave: 14.0%
  % Injury Range (%): 0-50%
  No. plants with 20-40% injury: 0
  No. plants with <20% injury: 4
  No. plants with >40% injury: 1
[1]; [4]
  % Injury Ave: 17.6%
  % Injury Range (%): 0-50%
  No. plants with 20-40% injury: 1
  No. plants with <20% injury: 3
  No. plants with >40% injury: 1
[1]; [5]
  % Injury Ave: 39.0%
  % Injury Range (%): 5-100%
  No. plants with 20-40% injury: 0
  No. plants with <20% injury: 3
  No. plants with >40% injury: 2
[1]; [6]
  % Injury Ave: 31.2%
  % Injury Range (%): 18-70%
  No. plants with 20-40% injury: 2
  No. plants with <20% injury: 2
  No. plants with >40% injury: 1
[1]; [7]
  % Injury Ave: 39.0%
  % Injury Range (%): 5-100%
  No. plants with 20-40% injury: 0
  No. plants with <20% injury: 3
  No. plants with >40% injury: 2
[1]; [8]
  % Injury Ave: 5.0%
  % Injury Range (%): 0-20%
  No. plants with 20-40% injury: 1
  No. plants with <20% injury: 3
  No. plants with >40% injury: 0
[1]; [9]
  % Injury Ave: 5.0%
  % Injury Range (%): 0-20%
  No. plants with 20-40% injury: 1
  No. plants with <20% injury: 3
  No. plants with >40% injury: 0
[1]; [10]
  % Injury Ave: 10.0%
  % Injury Range (%): 0-20%
  No. plants with 20-40% injury: 2
  No. plants with <20% injury: 2
  No. plants with >40% injury: 0
[1]; [11]
  % Injury Ave: 15.0%
  % Injury Range (%): 5-30%
  No. plants with 20-40% injury: 2
  No. plants with <20% injury: 2
  No. plants with >40% injury: 0
[2]
  T1 Families Tested Segregating at 1 Locus (%): 75%

B2: pDAB105533: TraP12 v2 -- dgt-28 v5: binary construct TraP12 v2: dgt-28 v5 (SEQ ID NO:36) (nucleic acid)
DNA: ATGGCACAATCTAGCAGAATCTGCCACGGTGTGCAGAACCCATGTGTGATCATTTCAAATCTCTCAAAGTCCAATCAGAACAAATCACCTTTCTCCGTCTCCCTCAAGACACACCAGCATCCAAGGGCATACCCGATAAGCAGCTCATGGGGACTCAAGAAGAGCGGAATGACTCTGATTGGCTCTGAGCTTCGTCCTCTTAAGGTTATGTCCTCTGTTTCCGCAGCAAGAGGGATGCCAGCCTTGTCTTTACCTGGATCAAAGAGTATCACAGCTAGGGCACTCTTTCTTGCTGCTGCTGCTGATGGGGTTACTACTTTGGTGAGGCCATTGAGAAGTGACGACACAGAAGGATTCGCTGAGGGGTTAGTTCGTTTAGGCTATCGTGTAGGGAGGACACCCGATACTTGGCAAGTCGATGGCAGACCACAAGGACCAGCAGTGGCTGAGGCTGACGTCTACTGTAGAGACGGAGCAACCACCGCTAGATTCTTGCCAACCTTAGCAGCTGCTGGTCACGGAACATACAGATTTGATGCTTCACCACAGATGAGGAGACGTCCTCTTTTGCCCTTAAGCAGAGCCTTGAGGGATTTGGGTGTCGATCTTAGACACGAAGAAGCTGAAGGTCATCACCCTCTGACTGTCCGTGCTGCTGGGGTTGAAGGAGGAGAGGTTACTTTGGATGCTGGTCAGTCAAGTCAGTATCTCACTGCCTTGTTGCTCCTTGGTCCCCTTACAAGACAAGGACTGAGGATAAGGGTTACTGATTTGGTGTCAGCACCATACGTGGAGATTACGCTTGCAATGATGAGGGCTTTCGGAGTTGAAGTGGCAAGGGAGGGAGATGTGTTCGTTGTTCCACCTGGTGGATATCGTGCAACTACGTATGCTATAGAACCCGACGCAAGTACTGCTTCTTACTTCTTCGCAGCTGCTGCTTTGACTCCTGGAGCTGAAGTGACTGTACCTGGGTTAGGCACGGGAGCACTTCAAGGAGATTTGGGATTTGTAGATGTCTTAAGGAGAATGGGAGCCGAGGTGTCCGTAGGAGCTGATGCAACCACTGTTAGAGGAACTGGTGAATTGCGTGGCCTTACAGCCAACATGAGAGACATAAGTGATACGATGCCGACCCTCGCTGCAATAGCACCCTTTGCTAGTGCTCCAGTTAGAATCGAGGATGTTGCCAACACTCGTGTCAAAGAATGTGACAGACTTGAGGCTTGTGCAGAGAACCTTAGGAGGTTGGGAGTAAGGGTTGCAACGGGTCCGGACTGGATTGAGATACACCCTGGTCCAGCTACTGGTGCTCAAGTCACAAGCTATGGTGATCACAGAATTGTGATGTCATTTGCAGTGACTGGACTTCGTGTGCCTGGGATCAGCTTCGACGACCCTGGCTGTGTTCGTAAGACTTTTCCTGGGTTTCACGAGGCTTTCGCAGAATTGAGGCGTGGCATTGGGAGCTGA
modifications: In-frame fusion of dgt-28 v5 and TraP12 v2
[1]; [3]
  % Injury Ave: 10.0%
  % Injury Range (%): 0-25%
  No. plants with 20-40% injury: 1
  No. plants with <20% injury: 4
  No. plants with >40% injury: 0
[1]; [4]
  % Injury Ave: 53.6%
  % Injury Range (%): 8-85%
  No. plants with 20-40% injury: 1
  No. plants with <20% injury: 1
  No. plants with >40% injury: 3
[1]; [5]
  % Injury Ave: 11.0%
  % Injury Range (%): 0-20%
  No. plants with 20-40% injury: 1
  No. plants with <20% injury: 4
  No. plants with >40% injury: 0
[1]; [6]
  % Injury Ave: 55.0%
  % Injury Range (%): 25-80%
  No. plants with 20-40% injury: 2
  No. plants with <20% injury: 0
  No. plants with >40% injury: 3
[1]; [7]
  % Injury Ave: 11.0%
  % Injury Range (%): 0-20%
  No. plants with 20-40% injury: 1
  No. plants with <20% injury: 4
  No. plants with >40% injury: 0
[1]; [8]
  % Injury Ave: 0.0%
  % Injury Range (%): 0%
  No. plants with 20-40% injury: 0
  No. plants with <20% injury: 4
  No. plants with >40% injury: 0
[1]; [9]
  % Injury Ave: 0.0%
  % Injury Range (%): 0%
  No. plants with 20-40% injury: 0
  No. plants with <20% injury: 4
  No. plants with >40% injury: 0
[1]; [10]
  % Injury Ave: 0.0%
  % Injury Range (%): 0%
  No. plants with 20-40% injury: 0
  No. plants with <20% injury: 4
  No. plants with >40% injury: 0
[1]; [11]
  % Injury Ave: 13.3%
  % Injury Range (%): 8-25%
  No. plants with 20-40% injury: 1
  No. plants with <20% injury: 3
  No. plants with >40% injury: 0
[2]
  T1 Families Tested Segregating at 1 Locus (%): 50%
